From patent publication US20160207991A1 (Pfizer, published 2016)
Substitutions are numbered along the chain they refer to.

Experiments:
recombinant human CXCL10 [1] = biological target: T1, recombinant human CXCL10 (human, UniProt P02778 22-98); assay: ELISA (Example 7): plate coated with 1 µg/ml of the antigen, antibody at the highest concentration of the titration, anti-IgG-HRP, TMB
T1 sequence (looked up): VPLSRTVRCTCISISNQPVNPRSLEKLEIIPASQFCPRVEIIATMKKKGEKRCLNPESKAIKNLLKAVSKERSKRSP
Protocol: (§1) NUNC plates were coated with 1 μg/ml of a neurotrophin or chemokine in 1×PBS overnight. […] Plates were washed and a 1/5000 dilution of anti-IgG-HRP (horse radish peroxidase) in blocking buffer was added for 1 h (100 μL total volume). Plates were washed and developed by addition of 3,3′,5,5′-Tetramethylbenzidine (TMB) substrate and subsequently stopped with phosphoric acid.

[2] = biological target: T2, p75NTR receptor (immobilised on the SPR flow cell) (Homo sapiens (Human), UniProt P08138 29-250); assay: as above
T2 construct: also called p75 neurotrophic receptor; LNGFR
T2 sequence: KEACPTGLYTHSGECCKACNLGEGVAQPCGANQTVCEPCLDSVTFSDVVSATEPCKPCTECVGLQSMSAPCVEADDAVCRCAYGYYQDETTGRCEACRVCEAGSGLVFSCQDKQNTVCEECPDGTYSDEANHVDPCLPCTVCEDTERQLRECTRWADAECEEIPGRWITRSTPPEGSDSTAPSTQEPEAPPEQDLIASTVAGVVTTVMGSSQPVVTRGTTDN
Protocol: as §1

[3] = biological target: T3, recombinant human neurotrophin-4 (human, UniProt P34130 81-210); assay: as above
T3 construct: also called NT4; NT-4
T3 sequence (looked up): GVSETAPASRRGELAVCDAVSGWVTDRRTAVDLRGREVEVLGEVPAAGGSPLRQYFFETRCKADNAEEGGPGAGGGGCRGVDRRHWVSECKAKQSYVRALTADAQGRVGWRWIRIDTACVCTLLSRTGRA
Protocol: as §1

recombinant human CXCL13 [4] = biological target: T4, recombinant human CXCL13 (human, UniProt O43927 23-109); assay: as above
T4 sequence (looked up): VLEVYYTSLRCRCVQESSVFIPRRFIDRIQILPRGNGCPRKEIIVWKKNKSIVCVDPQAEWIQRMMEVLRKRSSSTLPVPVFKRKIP
Protocol: as §1

recombinant human CXCL9 [5] = biological target: T5, recombinant human CXCL9 (human, UniProt Q07325 23-125); assay: as above
T5 sequence (looked up): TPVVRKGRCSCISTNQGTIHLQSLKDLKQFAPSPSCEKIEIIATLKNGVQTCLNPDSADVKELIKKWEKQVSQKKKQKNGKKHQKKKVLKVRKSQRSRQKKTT
Protocol: as §1

[6] = biological target: T6, recombinant human neurotrophin-3 (human, UniProt P20783 139-257); assay: as above
T6 construct: also called NT3; NT-3
T6 sequence (looked up): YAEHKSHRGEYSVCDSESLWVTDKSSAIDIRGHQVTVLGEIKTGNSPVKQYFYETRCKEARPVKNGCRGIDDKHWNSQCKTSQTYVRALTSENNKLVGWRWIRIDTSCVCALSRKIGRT
Protocol: as §1

[7] = biological target: T7, recombinant human beta-NGF (human, UniProt P01138 122-241); assay: as above
T7 construct: also called β-NGF; Nerve Growth Factor
T7 sequence (P01138 122-241 limits assumed): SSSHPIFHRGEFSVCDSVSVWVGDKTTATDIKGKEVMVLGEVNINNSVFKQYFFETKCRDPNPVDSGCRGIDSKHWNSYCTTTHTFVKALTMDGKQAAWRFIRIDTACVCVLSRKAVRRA
Protocol: as §1

[8] = biological target: T8, human brain-derived neurotrophic factor (BDNF) (human, UniProt P23560 129-247); assay: SPR, Biacore T200; immobilised human BDNF; 37 C (same data as Table 10)
T8 construct: In the HTRF assays the BDNF was biotinylated; also called hBDNF; human BDNF
T8 sequence: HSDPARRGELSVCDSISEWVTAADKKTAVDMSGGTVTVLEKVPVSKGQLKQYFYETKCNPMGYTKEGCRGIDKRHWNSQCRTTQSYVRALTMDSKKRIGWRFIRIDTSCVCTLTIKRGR
Protocol: (§2) All SPR experiments were performed at 37° C. and a data collection rate of 1 Hz with HBS-EP+ used as both the sample and running buffer. The resulting sensorgrams were double referenced with buffer injections and a non-derivatized flow cell surface. Rate constants were determined by applying a 1:1 Langmuir binding model using the T200 evaluation software v1.0 and the equation KD=kd/kₐ.

[9] = biological target: T9, endogenous rat BDNF in plasma (rat, UniProt P23363 131-249, limits assumed); assay: ligand-binding assay (Gyrolab) for total BDNF in plasma of dosed rats
T9 construct: also called endogenous BDNF
T9 sequence (looked up): T8 sequence
Protocol: Sample concentrations were determined by interpolation from a standard curve that was fitted using a 5-parameter logistic curve fit with 1/y² response weighting.

[10] = biological target: T8, human brain-derived neurotrophic factor …; assay: SPR, Biacore T200; human BDNF amine-coupled to CM5, antibody injected; 1:1 Langmuir; 37 C
Protocol: as §2
The dissociation phase for the highest concentration of antibody was extended to 4000 seconds to achieve a signal decay minimum of 5%. The kinetic rate constants were determined using a Langmuir 1:1 binding model and T200 evaluation software v1.0.

[11] = biological target: T8, human brain-derived neurotrophic factor …; assay: competition HTRF (Example 12): 1 nM biotinylated human BDNF, europium cryptate labelled H1, SA-XL665, unlabelled antibody titrated; competitor: labelled H1; x axis is log10 of pM by the text
Protocol: Reagents were added sequentially on the MiniTrak Liquid Handling Platform (Perkin-Elmer) into 384-well low volume black plates (Nunc).

[12] = biological target: T8, human brain-derived neurotrophic factor …; assay: cell-based or functional assay
[13] = biological target: T8, human brain-derived neurotrophic factor …; assay: SPR, Biacore T200; immobilised human BDNF; 37 C
Protocol: as §2

recombinant human CXCL10 [14] = biological target: T1, recombinant human CXCL10; assay: ELISA (Example 14, conditions of Example 7): plate coated with 1 µg/ml of the antigen, antibody at the highest concentration of the titration, anti-IgG-HRP, TMB
[15] = biological target: T2, p75NTR receptor (immobilised on the SPR …); assay: as above
[16] = biological target: T3, recombinant human neurotrophin-4; assay: as above
recombinant CXCL3 = biological target: T10, recombinant CXCL3 (Homo sapiens (Human), UniProt P19876 35-107); assay: as above
T10 sequence: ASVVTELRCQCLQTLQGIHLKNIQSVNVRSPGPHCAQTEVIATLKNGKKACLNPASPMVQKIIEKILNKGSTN

recombinant human CXCL13 [17] = biological target: T4, recombinant human CXCL13; assay: as above
recombinant human CXCL9 [18] = biological target: T5, recombinant human CXCL9; assay: as above
[19] = biological target: T6, recombinant human neurotrophin-3; assay: as above
[20] = biological target: T7, recombinant human beta-NGF; assay: as above

B1: anti-BDNF antibody R3BH1 (chicken-human chimeric IgG) (antibody, V domains shown)
VH: AVTLDESGGGLQTPGGGLSLVCKASGFDFSSYDMHWVRQAPGKGLEWVAGIDDGGSDTYYGSAVKGRATISRDNGQSTVRLQLNNLRAEDTGTYYCAKSSYDISWNGHVENIDAWGHGTEVIVSS
VL: ALTQPTSVSTNLGGTVEITCSGAGSGYGYGWFQQKSPGSAPVTVIYSNDKRPSDIPSRFSGSKSGSTGTLTITGVQAEDEAVYFCGTYDSTDAGYAIFGAGTTLTVL
notes: also called R3BH1 IgG; chimeric R3BH1
Recombinant human CXCL10 [1]
  binding result: no binding (tested: 300 µg/mL)
[2]
  binding result: no binding (tested: 300 µg/mL)
[3]
  binding result: no binding (tested: 300 µg/mL)
Recombinant human CXCL13 [4]
  binding result: no binding (tested: 300 µg/mL)
Recombinant human CXCL9 [5]
  binding result: no binding (tested: 300 µg/mL)
[6]
  binding result: no binding (tested: 300 µg/mL)
[7]
  binding result: no binding (tested: 300 µg/mL)
[8]
  Kd: 34.4 nM
  T1/2: 1.13 min
  koff: 0.0103 s⁻¹
  kon: 300000 M⁻¹ s⁻¹
[9]
  binding result: binds
[10]
  Kd: 34.4 nM
  T1/2: 1.13 min
  koff: 0.0103 s⁻¹
  kon: 303000 M⁻¹ s⁻¹

B2: humanised affinity matured anti-BDNF antibody B30 (antibody, V domains shown)
VH: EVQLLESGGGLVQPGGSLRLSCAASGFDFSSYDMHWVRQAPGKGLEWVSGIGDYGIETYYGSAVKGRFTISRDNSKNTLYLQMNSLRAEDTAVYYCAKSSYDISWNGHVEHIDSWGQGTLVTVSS
VL: SSELTQPPAVSVALGQTVRITCSGAGSGYGYGWYQQKPGQAPVTVIYSNDKRPSGIPDRFSGSSSGNTASLTITGAQAEDEADYYCGTYVSAYYGYAIFGGGTKLTVL
[9]
  binding result: binds
[11]
  IC50 (read off the curve): ~1 nM
[12]
  PathHunter pTrkB assay in U2OS TrkB/p75NTR cells, 300 pM BDNF: 0.54 nM
  pERK assay in U2OS TrkB/p75NTR cells, 150 pM BDNF: 1.3 nM
[13]
  Kd: 0.12 nM
  T1/2: 5.58 h
  koff: 3.5e-05 s⁻¹
  kon: 290000 M⁻¹ s⁻¹
Recombinant human CXCL10 [14]
  binding result: no binding (tested: 300 µg/mL)
[15]
  binding result: no binding (tested: 300 µg/mL)
[16]
  binding result: no binding (tested: 300 µg/mL)
Recombinant CXCL3
  binding result: no binding (tested: 300 µg/mL)
Recombinant human CXCL13 [17]
  binding result: no binding (tested: 300 µg/mL)
Recombinant human CXCL9 [18]
  binding result: no binding (tested: 300 µg/mL)
[19]
  binding result: no binding (tested: 300 µg/mL)
[20]
  binding result: no binding (tested: 300 µg/mL)

B3: humanised affinity-optimized anti-BDNF antibody B18 (antibody, V domains shown)
VH: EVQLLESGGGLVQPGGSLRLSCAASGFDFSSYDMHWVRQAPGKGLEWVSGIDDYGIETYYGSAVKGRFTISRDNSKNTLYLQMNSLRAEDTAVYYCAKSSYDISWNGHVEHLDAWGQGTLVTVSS
VL: B2 VL with S23Q, A25D, G26S, S48G, N49K, D50N, K51N
[11]
  IC50 (read off the curve): ~0.6 nM
[12]
  PathHunter pTrkB assay in U2OS TrkB/p75NTR cells, 300 pM BDNF: 0.29 nM
  pERK assay in U2OS TrkB/p75NTR cells, 150 pM BDNF: 0.95 nM
[13]
  Kd: 0.0994 nM
  T1/2: 7.03 h
  koff: 2.8e-05 s⁻¹
  kon: 290000 M⁻¹ s⁻¹
Recombinant human CXCL10 [14]
  binding result: no binding (tested: 300 µg/mL)
[15]
  binding result: no binding (tested: 300 µg/mL)
[16]
  binding result: no binding (tested: 300 µg/mL)
Recombinant CXCL3
  binding result: no binding (tested: 300 µg/mL)
Recombinant human CXCL13 [17]
  binding result: no binding (tested: 300 µg/mL)
Recombinant human CXCL9 [18]
  binding result: no binding (tested: 300 µg/mL)
[19]
  binding result: no binding (tested: 300 µg/mL)
[20]
  binding result: no binding (tested: 300 µg/mL)

B4: humanised affinity-optimized anti-BDNF antibody B20 (antibody, V domains shown)
VH: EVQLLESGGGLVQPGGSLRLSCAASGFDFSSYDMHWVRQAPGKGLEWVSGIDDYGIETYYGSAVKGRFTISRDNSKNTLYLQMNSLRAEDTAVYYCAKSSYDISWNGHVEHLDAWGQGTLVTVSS
VL: B2 VL with V90D, A92T, Y93D, Y94A
[11]
  IC50 (read off the curve): ~1 nM
[12]
  PathHunter pTrkB assay in U2OS TrkB/p75NTR cells, 300 pM BDNF: 0.31 nM
  pERK assay in U2OS TrkB/p75NTR cells, 150 pM BDNF: 1.1 nM
[13]
  Kd: 0.55 nM
  T1/2: 1.26 h
  koff: 0.000154 s⁻¹
  kon: 280000 M⁻¹ s⁻¹
Recombinant human CXCL10 [14]
  binding result: no binding (tested: 300 µg/mL)
[15]
  binding result: no binding (tested: 300 µg/mL)
[16]
  binding result: no binding (tested: 300 µg/mL)
Recombinant CXCL3
  binding result: no binding (tested: 300 µg/mL)
Recombinant human CXCL13 [17]
  binding result: no binding (tested: 300 µg/mL)
Recombinant human CXCL9 [18]
  binding result: no binding (tested: 300 µg/mL)
[19]
  binding result: no binding (tested: 300 µg/mL)
[20]
  binding result: no binding (tested: 300 µg/mL)
